Test results from the supplement of paper PMC10724198.
± gives the standard deviation of the averaged measurements.

System: Saccharomyces cerevisiae
Assay: protein stability index of tFT-peptide fusion (C-terminal peptide) (PSI (0-1 scale)); higher = more stable (slower turnover)
Settings: genetic background: cdc34-1; temperature: 37 C
Procedure: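 MPS profiling in S. cerevisiae of the tFT-X12 degron library: putative degron peptides plus stable controls, 12 aa, fused to the C-terminus of a sfGFP-mCherry timer. Cells are FACS-sorted into 8 mCherry/sfGFP bins and deep-sequenced. PSI runs from 0 (unstable) to 1 (stable). Backgrounds are wild type, das1Δ and doa10Δ at 30 °C, and wild type, das1Δ, cdc34-1 and cdc53-1 at 37 °C; 2-3 technical replicates each.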
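Note: PSI is a weighted mean of sequencing reads over stability bins, variants kept only with over 10 reads, mCherry proximal and sfGFP distal, peptide attached via GGGS linker.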

Sequence	protein stability index
ACALRSLPPRPY	0.69 ± 0.035
ACCGVFFFFFWL	0.403 ± 0.029
ACLVAVWRWVFV	0.276 ± 0.017
AFAFLLHRFLLV	0.493 ± 0.058
AFYQSGGLVVVV	0.618 ± 0.043
APPFPPPPARSL	0.644 ± 0.034
DNTYRIDIKNKQ	0.764 ± 0.093
FFFWLLCAGWLL	0.661 ± 0.01
GAQQRVKERYIE	0.648 ± 0.012
GGGGVFGVWVWM	0.533 ± 0.058
GRTDFSTLLLIC	0.491 ± 0.016
HSAIFLFFFFFG	0.283 ± 0.11
LLFFGFVGSCVF	0.6341 ± 0.0023
LPPHSASLSSSF	0.701 ± 0.054
NAAVQSGGRVAG	0.67 ± 0.043
PACPPLPPRSPS	0.634 ± 0.0068
RPPHPPPATFLS	0.617 ± 0.064
RWRLWVGWGVVG	0.621 ± 0.034
VGGREVSRAGGG	0.62 ± 0.048
VSVFWVFLLVAG	0.223 ± 0.0059
WPPPPPSLLLLC	0.4666 ± 0.0016
YIYIFLVWGWYC	0.193 ± 0.056

Same assay, conditions: genetic background: cdc53-1; temperature: 37 C

Sequence	protein stability index
ACALRSLPPRPY	0.7529 ± 0.0042
ACCGVFFFFFWL	0.479 ± 0.018
ACLVAVWRWVFV	0.44 ± 0.037
AFAFLLHRFLLV	0.55 ± 0.0057
AFYQSGGLVVVV	0.617 ± 0.016
APPFPPPPARSL	0.713 ± 0.0095
DNTYRIDIKNKQ	0.771 ± 0.04
FFFWLLCAGWLL	0.622 ± 0.012
GAQQRVKERYIE	0.721 ± 0.027
GGGGVFGVWVWM	0.618 ± 0.018
GRTDFSTLLLIC	0.6912 ± 0.0053
HSAIFLFFFFFG	0.4553 ± 0.0042
LLFFGFVGSCVF	0.6187 ± 0.0052
LPPHSASLSSSF	0.7591 ± 0.0059
NAAVQSGGRVAG	0.722 ± 0.05
PACPPLPPRSPS	0.7142 ± 0.0047
RPPHPPPATFLS	0.7 ± 0.0084
RWRLWVGWGVVG	0.688 ± 0.022
VGGREVSRAGGG	0.672 ± 0.0081
VSVFWVFLLVAG	0.375 ± 0.011
WPPPPPSLLLLC	0.548 ± 0.022
YIYIFLVWGWYC	0.314 ± 0.016

Same assay, conditions: genetic background: das1 deletion; temperature: 30 C

Sequence	protein stability index
ACALRSLPPRPY	0.65 ± 0.024
ACCGVFFFFFWL	0.366 ± 0.031
ACLVAVWRWVFV	0.309 ± 0.024
AFAFLLHRFLLV	0.477 ± 0.018
AFYQSGGLVVVV	0.459 ± 0.034
APPFPPPPARSL	0.675 ± 0.019
DNTYRIDIKNKQ	0.641 ± 0.019
FFFWLLCAGWLL	0.544 ± 0.044
GAQQRVKERYIE	0.636 ± 0.028
GGGGVFGVWVWM	0.511 ± 0.013
GRTDFSTLLLIC	0.564 ± 0.018
HSAIFLFFFFFG	0.314 ± 0.022
LLFFGFVGSCVF	0.468 ± 0.028
LPPHSASLSSSF	0.635 ± 0.029
NAAVQSGGRVAG	0.638 ± 0.01
PACPPLPPRSPS	0.693 ± 0.028
RPPHPPPATFLS	0.679 ± 0.018
RWRLWVGWGVVG	0.521 ± 0.0056
VGGREVSRAGGG	0.49 ± 0.027
VSVFWVFLLVAG	0.245 ± 0.024
WPPPPPSLLLLC	0.473 ± 0.016
YIYIFLVWGWYC	0.214 ± 0.033

Same assay, conditions: genetic background: das1 deletion; temperature: 37 C

Sequence	protein stability index
ACALRSLPPRPY	0.746 ± 0.024
ACCGVFFFFFWL	0.414 ± 0.016
ACLVAVWRWVFV	0.475 ± 0.0051
AFAFLLHRFLLV	0.584 ± 0.0064
AFYQSGGLVVVV	0.6279 ± 0.0048
APPFPPPPARSL	0.718 ± 0.033
DNTYRIDIKNKQ	0.689 ± 0.0069
FFFWLLCAGWLL	0.656 ± 0.0071
GAQQRVKERYIE	0.7346 ± 0.0027
GGGGVFGVWVWM	0.656 ± 0.0086
GRTDFSTLLLIC	0.683 ± 0.019
HSAIFLFFFFFG	0.444 ± 0.03
LLFFGFVGSCVF	0.671 ± 0.041
LPPHSASLSSSF	0.725 ± 0.011
NAAVQSGGRVAG	0.733 ± 0.0013
PACPPLPPRSPS	0.737 ± 0.017
RPPHPPPATFLS	0.727 ± 0.0097
RWRLWVGWGVVG	0.691 ± 0.039
VGGREVSRAGGG	0.578 ± 0.06
VSVFWVFLLVAG	0.4401 ± 0.0035
WPPPPPSLLLLC	0.611 ± 0.017
YIYIFLVWGWYC	0.4232 ± 0.0041

Same assay, conditions: genetic background: doa10 deletion; temperature: 30 C

Sequence	protein stability index
ACALRSLPPRPY	0.68 ± 0.019
ACCGVFFFFFWL	0.363 ± 0.0061
ACLVAVWRWVFV	0.0646 ± 0.012
AFAFLLHRFLLV	0.103 ± 0.0047
AFYQSGGLVVVV	0.45 ± 0.016
APPFPPPPARSL	0.694 ± 0.022
DNTYRIDIKNKQ	0.4753 ± 0.0045
FFFWLLCAGWLL	0.551 ± 0.041
GAQQRVKERYIE	0.6157 ± 0.0038
GGGGVFGVWVWM	0.23 ± 0.017
GRTDFSTLLLIC	0.106 ± 0.012
HSAIFLFFFFFG	0.331 ± 0.051
LLFFGFVGSCVF	0.471 ± 0.047
LPPHSASLSSSF	0.665 ± 0.015
NAAVQSGGRVAG	0.645 ± 0.025
PACPPLPPRSPS	0.688 ± 0.069
RPPHPPPATFLS	0.226 ± 0.025
RWRLWVGWGVVG	0.425 ± 0.029
VGGREVSRAGGG	0.477 ± 0.0076
VSVFWVFLLVAG	0.189 ± 0.012
WPPPPPSLLLLC	0.127 ± 0.0019
YIYIFLVWGWYC	0.103 ± 0.013

Same assay, conditions: genetic background: wild type; temperature: 30 C

Sequence	protein stability index
ACALRSLPPRPY	0.649 ± 0.021
ACCGVFFFFFWL	0.35 ± 0.02
ACLVAVWRWVFV	0.0758 ± 0.0066
AFAFLLHRFLLV	0.11 ± 0.012
AFYQSGGLVVVV	0.477 ± 0.024
APPFPPPPARSL	0.68 ± 0.017
DNTYRIDIKNKQ	0.466 ± 0.013
FFFWLLCAGWLL	0.534 ± 0.0081
GAQQRVKERYIE	0.646 ± 0.03
GGGGVFGVWVWM	0.272 ± 0.024
GRTDFSTLLLIC	0.132 ± 0.039
HSAIFLFFFFFG	0.296 ± 0.024
LLFFGFVGSCVF	0.485 ± 0.036
LPPHSASLSSSF	0.675 ± 0.022
NAAVQSGGRVAG	0.646 ± 0.0076
PACPPLPPRSPS	0.7 ± 0.015
RPPHPPPATFLS	0.253 ± 0.025
RWRLWVGWGVVG	0.368 ± 0.078
VGGREVSRAGGG	0.481 ± 0.011
VSVFWVFLLVAG	0.218 ± 0.024
WPPPPPSLLLLC	0.149 ± 0.019
YIYIFLVWGWYC	0.132 ± 0.0065

Same assay, conditions: genetic background: wild type; temperature: 37 C

Sequence	protein stability index
ACALRSLPPRPY	0.712 ± 0.017
ACCGVFFFFFWL	0.433 ± 0.031
ACLVAVWRWVFV	0.0704 ± 0.0067
AFAFLLHRFLLV	0.142 ± 0.011
AFYQSGGLVVVV	0.591 ± 0.046
APPFPPPPARSL	0.677 ± 0.015
DNTYRIDIKNKQ	0.6553 ± 0.00098
FFFWLLCAGWLL	0.649 ± 0.0073
GAQQRVKERYIE	0.741 ± 0.00086
GGGGVFGVWVWM	0.494 ± 0.014
GRTDFSTLLLIC	0.16 ± 0.056
HSAIFLFFFFFG	0.401 ± 0.034
LLFFGFVGSCVF	0.57 ± 0.0036
LPPHSASLSSSF	0.704 ± 0.013
NAAVQSGGRVAG	0.696 ± 0.016
PACPPLPPRSPS	0.7 ± 0.024
RPPHPPPATFLS	0.487 ± 0.021
